Tests used:
murine B7-DC (murine) [1] = target: murine B7-DC (murine) (UniProt Q9WUL5); assay: flow cytometry competition on murine bone marrow derived DC; DC preincubated with PD-1.Ig, then stained with sHIgM12
murine B7-DC (murine) [2] = target: murine B7-DC (murine) (UniProt Q9WUL5); assay: cell-based or functional assay
murine B7-DC (murine) [3] = target: murine B7-DC (murine) (UniProt Q9WUL5); assay: flow cytometry competition on murine bone marrow derived DC; DC preincubated with sHIgM12, then stained with PD-1.Ig
murine B7-DC (murine) [4] = target: murine B7-DC (murine) (UniProt Q9WUL5); assay: flow cytometry on 293T cells transfected with murine B7-DC

Chain of murine B7-DC (murine) (Q9WUL5 20-247): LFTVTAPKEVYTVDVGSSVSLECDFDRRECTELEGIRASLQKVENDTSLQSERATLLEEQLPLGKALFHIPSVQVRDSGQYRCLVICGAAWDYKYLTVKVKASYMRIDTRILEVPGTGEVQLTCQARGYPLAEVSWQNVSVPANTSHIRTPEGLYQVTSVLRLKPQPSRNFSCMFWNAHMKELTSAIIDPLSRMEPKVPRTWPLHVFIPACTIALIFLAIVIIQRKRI

| Substance | sHIgM12 staining remaining (% of the level without PD-1) (murine B7-DC (murine) [1]) | FITC-MFI (uptake of FITC-BSA by bone marrow derived DC in vitro) (murine B7-DC (murine) [2]) | FITC-MFI (uptake of FITC-OVA by splenic DC after treatment in vivo) (murine B7-DC (murine) [2]) | GFP+, CD11c+ DC recovered from draining lymph nodes, against polyclonal HIgM control (murine B7-DC (murine) [2]) | IL-12 p70 release by DC (ELISA), against LPS (murine B7-DC (murine) [2]) | ability of lymph node DC to induce an antigen-specific T cell response (murine B7-DC (murine) [2]) | percentage of cellular metabolism (Alamar Blue) maintained 24 hours after cytokine withdrawal (murine B7-DC (murine) [2]) | PD-1 binding remaining (% of the level without sHIgM12) (murine B7-DC (murine) [3]) | percent of transfected cells stained (murine B7-DC (murine) [4]) |
| --- | --- | --- | --- | --- | --- | --- | --- | --- | --- |
| PD-1.Ig fusion protein (Fc fusion) | 50% |  |  |  |  |  |  |  |  |
| sHIgM12 (pentameric human monoclonal IgM/kappa antibody, B7-DC cross-linking antibody) |  | 584 MFI | 116 MFI | 5 fold | 3 fold | 10 fold | 80% | 20% | 97% |

From patent EP2481750A1
